Assay results: patent US7777010 (CRUCELL HOLLAND B V, dated 2010)

T1: purified recombinant Ep-CAM produced in insect cells (UniProt P16422 24-265, limits assumed)
T1 construct: Coupled to a CM5 sensor chip by NHS/EDC; Neither the species nor the construct limits are stated at this place
T1 sequence (looked up): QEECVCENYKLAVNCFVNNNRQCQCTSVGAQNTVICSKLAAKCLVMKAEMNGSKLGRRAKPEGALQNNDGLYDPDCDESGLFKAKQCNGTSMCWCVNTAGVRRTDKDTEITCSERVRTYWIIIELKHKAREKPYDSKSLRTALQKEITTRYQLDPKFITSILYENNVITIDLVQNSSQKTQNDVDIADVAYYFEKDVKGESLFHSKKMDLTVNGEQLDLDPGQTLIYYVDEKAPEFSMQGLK


Experiments:
[1] = target: T1, purified recombinant Ep-CAM produced in …; assay: SPR (BIAcore), recombinant Ep-CAM coupled to CM5 chip, IgG1 in flow
Experimental: (§1) In separate BIAcore flow cells, approximately 160, 1565 and 4154 resonance units of purified recombinant Ep-CAM produced in insect cells (kindly provided by Dr. D. Herlyn, Wistar institute, Philadelphia, Pa.) (25 µg/ml) in 10 mM acetate buffer (pH 4.0) were coupled to a CM5 sensor chip using NHS/EDC coupling chemistry. Association and dissociation were measured under continuous flow of […] using a concentration range from 100 to 1 nM.
(§2) The kinetic association and dissociation rates of the original huMab UBS-54 and the mutant huMabs A37 and C52 were determined by surface plasmon resonance (Table 1). […] The improvement was mainly the result of a lower […].

[2] = target: T1, purified recombinant Ep-CAM produced in …; assay: SPR (BIAcore), recombinant Ep-CAM coupled to CM5 chip
Experimental: as §1, §2

Row | Kd [1] | koff [1] | kon [1] | fold increase in affinity against the original huMab UBS-54 [2] | fold improvement of binding affinity against the original UBS-54 huMab [2] | Binder
1 | 6 nM | 0.0006 s⁻¹ | 100000 M⁻¹ s⁻¹ |  |  | huMab UBS-54 (antibody, V domains shown, Tested as an intact human IgG1/kappa huMab made in BHK cells (VH1 / Vk2 V regions); FITC-labelled in the spheroid experiment; also called original huMab UBS-54; original UBS-54) VH: QVQLVQSGAEVKKPGSSVRVSCKASGGTFSSYAISWVRQAPGQGLEWMGGIIPIFGTANYAQKFQGRVTITADESTSTAYMELSSLRSEDTAVYYCARDPFLHYWGQGTLVT VL: not shown
2 | 1.6 nM | 0.00041 s⁻¹ | 250000 M⁻¹ s⁻¹ | ~4 fold |  | huMab A37 (antibody, V domains shown, Tested as an intact human IgG1/kappa huMab made in BHK cells; It has the UBS-54 VH with a shuffled Vk3 light chain; also called mutant A37) VH: QVQLVQSGAEVKKPGSSVRVSCKASGGTFSSYAISWVRQAPGQGLEWMGGIIPIFGTANYAQKFQGRVTITADESTSTAYMELSSLRSEDTAVYYCARDPFLHYWGQGTLVT VL: EIELTQSPGTLSLSPGERATLSCRASQTISNNYLAWYQQKRGQAPRLLIYAASSRATGIPDRFSGTGSGTDFTLTISRLEPEDFAVYYCAQGELYPRQFGGGTKLEI
3 | 0.4 nM | 0.00011 s⁻¹ | 270000 M⁻¹ s⁻¹ |  | 15 fold | huMab C52 (antibody, V domains shown, Tested as an intact human IgG1/kappa huMab made in BHK cells; It has the B43 VH with a DNA-shuffled A37-derived Vk light chain; FITC-labelled in the spheroid experiment; also called mutant C52) VH: QVQLVQSGAEVKKPGASVKVSCKASGGTFSSYAISWVRQAPGQGLEWMGGIVPIFGTANYAQKFQGRVTITADESTSTAYMELSSLRSEDTAVYYCARDPFLHYWGQGTLVT VL: EIELTQSPGTLSLSPGERATLSCRASQSVSSSYLAWYQQKPGQAPRLLIYGASSRATGIPDRFSGSGSGTDFTLTISRLEPEDFAVYYCAQGELYPRQFGGGTKLDI
